Values of other authors as cited in publication PMC2874015.

How the values were obtained:
[1] = molecular target: GCN4 leucine zipper (Saccharomyces cerevisiae) (UniProt P03069)
[2] = molecular target: c-Jun leucine zipper (Homo sapiens) (UniProt P05412)

Sequence of GCN4 leucine zipper (P03069 250-277): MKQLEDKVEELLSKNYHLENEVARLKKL
Sequence of c-Jun leucine zipper (P05412 277-311): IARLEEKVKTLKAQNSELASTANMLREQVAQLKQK

Kd [1]	Kd [2]	Substance
8 nM	–	GCN4 leucine zipper (from UniProt P03069)
–	448 µM	c-Jun leucine zipper (from UniProt P05412)
